# Patent US20200123233A1
# Legend:
# Test in all cases: cell-based or functional assay
# [1] = target: Rabies virus glycoprotein G, strain CVS-11 (Challenge Virus Standard-11, ATCC VR 959) (Rabies virus, strain CVS-11)
# [2] = target: Rabies virus glycoprotein G, Challenge Virus Standard (CVS)-11 strain (Rabies virus, strain CVS-11 (genotype 1 Lyssavirus)) (UniProt O92284)
# [3] = target: Rabies virus glycoprotein G, ERA strain (attenuated vaccine strain, ATCC VR332) (Rabies virus, ERA strain (genotype 1 lyssavirus)) (UniProt P03524)
# Sequence of Rabies virus glycoprotein G, ERA strain (attenuated vaccine strain, ATCC VR332) (Rabies virus, ERA strain (genotype 1 lyssavirus)) (P03524 20-524 limits assumed): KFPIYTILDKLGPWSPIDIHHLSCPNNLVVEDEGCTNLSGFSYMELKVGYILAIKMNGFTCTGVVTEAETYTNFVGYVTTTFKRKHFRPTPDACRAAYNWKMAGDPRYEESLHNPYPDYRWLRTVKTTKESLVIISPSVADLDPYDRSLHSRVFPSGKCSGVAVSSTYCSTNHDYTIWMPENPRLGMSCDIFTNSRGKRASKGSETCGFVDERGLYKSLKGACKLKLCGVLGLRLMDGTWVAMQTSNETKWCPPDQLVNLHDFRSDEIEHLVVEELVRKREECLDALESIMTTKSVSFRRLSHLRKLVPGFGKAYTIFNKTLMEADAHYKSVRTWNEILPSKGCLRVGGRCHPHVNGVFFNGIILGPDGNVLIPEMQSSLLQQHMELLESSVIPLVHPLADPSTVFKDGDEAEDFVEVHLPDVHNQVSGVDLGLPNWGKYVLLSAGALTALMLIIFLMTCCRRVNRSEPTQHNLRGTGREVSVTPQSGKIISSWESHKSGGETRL
# Sequence of Rabies virus glycoprotein G, Challenge Virus Standard (CVS)-11 strain (Rabies virus, strain CVS-11 (genotype 1 Lyssavirus)) (O92284 20-524 limits assumed): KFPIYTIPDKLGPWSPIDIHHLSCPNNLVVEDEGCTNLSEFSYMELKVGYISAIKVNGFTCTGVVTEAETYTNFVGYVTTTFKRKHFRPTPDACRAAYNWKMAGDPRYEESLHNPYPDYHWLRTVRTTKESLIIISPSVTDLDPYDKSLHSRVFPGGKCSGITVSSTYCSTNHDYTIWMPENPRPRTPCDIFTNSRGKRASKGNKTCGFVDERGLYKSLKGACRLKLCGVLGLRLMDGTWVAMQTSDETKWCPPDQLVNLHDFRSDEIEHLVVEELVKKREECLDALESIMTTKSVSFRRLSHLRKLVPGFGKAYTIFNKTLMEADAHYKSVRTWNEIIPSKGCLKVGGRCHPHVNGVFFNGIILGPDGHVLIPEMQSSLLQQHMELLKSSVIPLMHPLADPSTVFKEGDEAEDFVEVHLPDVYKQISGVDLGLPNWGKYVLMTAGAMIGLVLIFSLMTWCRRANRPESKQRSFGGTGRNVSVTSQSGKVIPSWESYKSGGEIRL
Binder,CVS neutralizing antibody titre (RFFIT): IU/mg [1] [IU/mg],CVS neutralizing antibody titre (RFFIT): IU/ml [1] [IU/ml],CVS neutralizing antibody titre (RFFIT): IU/nM [1] [IU/nM],CVS neutralizing antibody titre (RFFIT): nM IC50 [1] [nM],Potency (IU/nM) increase versus monovalent [1] [fold],"CVS-11 neutralizing antibody titer (RFFIT), IU/mg [2] [IU/mg]","CVS-11 neutralizing antibody titer (RFFIT), IU/ml [2] [IU/ml]","CVS-11 neutralizing antibody titer (RFFIT), IU/µM [2] [IU/µM]","CVS-11 neutralizing antibody titer (RFFIT), nM IC50 [2] [nM]",ERA neutralizing antibody titer (RFFIT): EU/mg [3] [EU/mg],ERA neutralizing antibody titer (RFFIT): EU/ml [3] [EU/ml],ERA neutralizing antibody titer (RFFIT): EU/µM [3] [EU/µM],ERA neutralizing antibody titer (RFFIT): nM IC50 [3] [nM]
214-E8 15GS 212-C12 (VHH) EVQLVESGGGSVQAGGSLRLSCAASGGTFNPYVMAWFRQAPGNEREFVARIRWSGGDAYYDDSVKGRFAITRDAAKNTVHLQMNSLKPEDTAVYYCAAATYGYGSYTYGGSYDLWGQGTQVTVSSGGGGSGGGGSGGGGSEVQLVESGGGLVQPGGSLRLSCAASGFTFGSSDMSWVRQAPGKGPEWVSGINSGGGRTLYADSVKGRFTISRDNAKNTLYLQMNSLKSEDTAVYYCATDLYGSSWYTDYWSQGTQVTVSS,322,998,8.7,3.69,8,–,–,–,–,–,–,–,–
214-E8 5GS 212-C12 (VHH) EVQLVESGGGSVQAGGSLRLSCAASGGTFNPYVMAWFRQAPGNEREFVARIRWSGGDAYYDDSVKGRFAITRDAAKNTVHLQMNSLKPEDTAVYYCAAATYGYGSYTYGGSYDLWGQGTQVTVSSGGGGSEVQLVESGGGLVQPGGSLRLSCAASGFTFGSSDMSWVRQAPGKGPEWVSGINSGGGRTLYADSVKGRFTISRDNAKNTLYLQMNSLKSEDTAVYYCATDLYGSSWYTDYWSQGTQVTVSS,214,171,5.68,5.65,5.2,–,–,–,–,–,–,–,–
214-E8 15GS 214-E8 (VHH) EVQLVESGGGSVQAGGSLRLSCAASGGTFNPYVMAWFRQAPGNEREFVARIRWSGGDAYYDDSVKGRFAITRDAAKNTVHLQMNSLKPEDTAVYYCAAATYGYGSYTYGGSYDLWGQGTQVTVSSGGGGSGGGGSGGGGSEVQLVESGGGSVQAGGSLRLSCAASGGTFNPYVMAWFRQAPGNEREFVARIRWSGGDAYYDDSVKGRFAITRDAAKNTVHLQMNSLKPEDTAVYYCAAATYGYGSYTYGGSYDLWGQGTQVTVSS,349,454,9.78,3.28,31.5,–,–,–,–,–,–,–,–
213-E6 25GS 214-E8 (VHH) EVQLVESGGGLVQAGASLRLSCAASGSTLSRYGVGWFRQAPGKERELVASVDWSGSRTYYADSVKGRFTISRDNAKNTGYLQMNSLKPDDTAVYYCAADSSVVPGIEKYDDWGLGTQVTVSSGGGGSGGGGSGGGGSGGGGSGGGGSEVQLVESGGGSVQAGGSLRLSCAASGGTFNPYVMAWFRQAPGNEREFVARIRWSGGDAYYDDSVKGRFAITRDAAKNTVHLQMNSLKPEDTAVYYCAAATYGYGSYTYGGSYDLWGQGTQVTVSS,657,46,1.84,1.68,2.3,–,–,–,–,–,–,–,–
LG214A8 (VHH) VHH: EVQLVKSGGGSVQAGGSLRLSCAASGGTFNPYVMAWFRQAPGNEREFVARIRWSGGDAYYDDSVKGRFAITRDAAKNTVHLQMNSLKPEDTAVYYCAAATYGYGSYTYGGSYDLWGQGTQVTVSS,–,–,–,–,–,7.93,9.12,0.12,293,< 0.43,< 0.5,< 0.01,> 8560
LG214C10 (VHH) VHH: EVQLVESGGGLVQPGGSLRLSCAASGFIFGSYDMSWVRQAPGKGPEWVSGINSGGGSTGYADSVKGRFTISRDNAKNTLYLQMNSLKPEDTAVYYCSTNLYPTTDDVWGQGTQVTVSS,–,–,–,–,–,10.6,4.24,0.16,220,35.1,14,0.52,63.7
213-E6 15GS 213-H7 (VHH) EVQLVESGGGLVQAGASLRLSCAASGSTLSRYGVGWFRQAPGKERELVASVDWSGSRTYYADSVKGRFTISRDNAKNTGYLQMNSLKPDDTAVYYCAADSSVVPGIEKYDDWGLGTQVTVSSGGGGSGGGGSGGGGSEVQLVESGGGLVQAGGSLRLSCAASGRTLSSYRMGWFRQAPGKEREFISTISWNGRSTYYADSVKGRFIFSEDNAKNTVYLQMNSLKPEDTAVYYCAAALIGGYYSDVDAWSYWGPGTQVTVSS,4250,3760,93.7,0.26,107,–,–,–,–,–,–,–,–
212-C12 15GS 212-C12 (VHH) EVQLVESGGGLVQPGGSLRLSCAASGFTFGSSDMSWVRQAPGKGPEWVSGINSGGGRTLYADSVKGRFTISRDNAKNTLYLQMNSLKSEDTAVYYCATDLYGSSWYTDYWSQGTQVTVSSGGGGSGGGGSGGGGSEVQLVESGGGLVQPGGSLRLSCAASGFTFGSSDMSWVRQAPGKGPEWVSGINSGGGRTLYADSVKGRFTISRDNAKNTLYLQMNSLKSEDTAVYYCATDLYGSSWYTDYWSQGTQVTVSS,330,330,8.57,3.74,4.6,–,–,–,–,–,–,–,–
214-E8 15GS 213-H7 (VHH) EVQLVESGGGSVQAGGSLRLSCAASGGTFNPYVMAWFRQAPGNEREFVARIRWSGGDAYYDDSVKGRFAITRDAAKNTVHLQMNSLKPEDTAVYYCAAATYGYGSYTYGGSYDLWGQGTQVTVSSGGGGSGGGGSGGGGSEVQLVESGGGLVQAGGSLRLSCAASGRTLSSYRMGWFRQAPGKEREFISTISWNGRSTYYADSVKGRFIFSEDNAKNTVYLQMNSLKPEDTAVYYCAAALIGGYYSDVDAWSYWGPGTQVTVSS,8220,1890,230,0.14,605,–,–,–,–,–,–,–,–
214-E8 25GS 212-C12 (VHH) EVQLVESGGGSVQAGGSLRLSCAASGGTFNPYVMAWFRQAPGNEREFVARIRWSGGDAYYDDSVKGRFAITRDAAKNTVHLQMNSLKPEDTAVYYCAAATYGYGSYTYGGSYDLWGQGTQVTVSSGGGGSGGGGSGGGGSGGGGSGGGGSEVQLVESGGGLVQPGGSLRLSCAASGFTFGSSDMSWVRQAPGKGPEWVSGINSGGGRTLYADSVKGRFTISRDNAKNTLYLQMNSLKSEDTAVYYCATDLYGSSWYTDYWSQGTQVTVSS,573,70.5,1.6,1.94,1.5,–,–,–,–,–,–,–,–
213-E6 5GS 213-E6 (VHH) EVQLVESGGGLVQAGASLRLSCAASGSTLSRYGVGWFRQAPGKERELVASVDWSGSRTYYADSVKGRFTISRDNAKNTGYLQMNSLKPDDTAVYYCAADSSVVPGIEKYDDWGLGTQVTVSSGGGGSEVQLVESGGGLVQAGASLRLSCAASGSTLSRYGVGWFRQAPGKERELVASVDWSGSRTYYADSVKGRFTISRDNAKNTGYLQMNSLKPDDTAVYYCAADSSVVPGIEKYDDWGLGTQVTVSS,1300,1290,36,0.88,27.7,–,–,–,–,–,–,–,–
LG214F8 (VHH) VHH: EVQLVESGGDLVQAGGSLRLSCVASGSTYSINAMGWYRQAPGKLRELVAAFRTGGSTDYADSVKGRFTISRDTAKNTVYLQMNSLKPEDTAVYYCNAEVIYYPYDYWGQGTQVTVSS,–,–,–,–,–,7.19,1.15,0.11,325,23.8,3.81,0.36,94
NB6-18GS-NB6 (VHH) EVQLVESGGGLVQAGGSLRLSCAASGPTFSADTMGWFRQAPGKEREFVATIPWSGGIAYYSDSVKGRFTMSRDNAKNTVDLQMNSLKPEDTALYYCAGSSRIYIYSDSLSERSYDYWGQGTQVTVSSGGGGSGGGGSGGGGGGGSEVQLVESGGGLVQAGGSLRLSCAASGPTFSADTMGWFRQAPGKEREFVATIPWSGGIAYYSDSVKGRFTMSRDNAKNTVDLQMNSLKPEDTALYYCAGSSRIYIYSDSLSERSYDYWGQGTQVTVSSAAAEQKLISEEDLNGAAHHHHHH,< 2.38,< 0.5,< 0.07,> 725,–,–,–,–,–,–,–,–,–
213-H7 15GS 213-H7 (VHH) EVQLVESGGGLVQAGGSLRLSCAASGRTLSSYRMGWFRQAPGKEREFISTISWNGRSTYYADSVKGRFIFSEDNAKNTVYLQMNSLKPEDTAVYYCAAALIGGYYSDVDAWSYWGPGTQVTVSSGGGGSGGGGSGGGGSEVQLVESGGGLVQAGGSLRLSCAASGRTLSSYRMGWFRQAPGKEREFISTISWNGRSTYYADSVKGRFIFSEDNAKNTVYLQMNSLKPEDTAVYYCAAALIGGYYSDVDAWSYWGPGTQVTVSS,549,412,15.4,2.09,34.2,–,–,–,–,–,–,–,–
